Results published in patent US20210230570.
Where a chain is given by its changes, count along the chain named. Names may count otherwise.

B1: FIXa-K247N/N249S/N260S (protein)
chain 1: YNSGKLEEFVQGNLERECMEEKCSFEEAREVFENTERTTEFWKQYVDGDQCESNPCLNGGSCKDDINSYECWCPFGFEGKNCELDVTCNIKNGRCEQFCKNSADNKVVCSCTEGYRLAENQKSCEPAVPFPCGRVSVSQTSKLTR
chain 2: VVGGEDAKPGQFPWQVVLNGKVDAFCGGSIVNEKWIVTAAHCVETGVKITVVAGEHNIEETEHTEQNRSVIRIIPHHNYSAAINKYNHDIALLELDEPLVLNSYVTPICIADKEYTNIFLKFGSGYVSGWGRVFHKGRSALVLQYLRVPLVDRATCLRSTKFTIYNNMFCAGFHEGGRDSCQGDSGGPHVTEVEGTSFLTGIISWGEECAMKGKYGIYTKVSRYVNWIKEKTKLT
B2: FIXa K247N/N249S/R318Y/R338E/R403E/E410N (protein)
chain 1: B1 chain 1
chain 2: B1 chain 2 with S80N, R138Y, R158E, R223E, E230N
B3: FIXa K228N/K247N/N249S (protein)
chain 1: B1 chain 1
chain 2: B1 chain 2 with K48N, S80N
B4: FIXa R318Y/R338E/R403E/E410N/T412V (protein)
chain 1: B1 chain 1
chain 2: B1 chain 2 with N67K, S69N, S80N, R138Y, R158E, R223E, E230N, T232V
B5: FIXa Y155F/I251S/R318Y/R338E/R403E/E410N (protein)
chain 1: B1 chain 1
chain 2: B1 chain 2 with N67K, S69N, I71S, S80N, R138Y, R158E, R223E, E230N
B6: FIXa Y155F/K247N/N249S/R318Y/R338E/E410N (protein)
chain 1: B1 chain 1
chain 2: B1 chain 2 with S80N, R138Y, R158E, E230N
B7: FIXa R318Y/R338E/N346D/R403E/E410N (protein)
chain 1: B1 chain 1
chain 2: B1 chain 2 with N67K, S69N, S80N, R138Y, R158E, N166D, R223E, E230N
B8: FIXa R318Y/R338E/R403E/T412A (protein)
chain 1: B1 chain 1
chain 2: B1 chain 2 with N67K, S69N, S80N, R138Y, R158E, R223E, T232A
B9: FIXa D104N/K106S/K228N/K247N/N249S (protein)
chain 1: B1 chain 1 with D104N, K106S
chain 2: B1 chain 2 with K48N, S80N
B10: FIXa D104N/K106S/I251S/R318Y/R338E/E410N (protein)
chain 1: B1 chain 1 with D104N, K106S
chain 2: B1 chain 2 with N67K, S69N, I71S, S80N, R138Y, R158E, E230N
B11: FIXa D104N/K106S/I251S/R318Y/R338E/R403E/E410N (protein)
chain 1: B1 chain 1 with D104N, K106S
chain 2: B1 chain 2 with N67K, S69N, I71S, S80N, R138Y, R158E, R223E, E230N
B12: FIXa D104N/K106S/N260S/R318Y/R338E/R403E/E410N (protein)
chain 1: B1 chain 1 with D104N, K106S
chain 2: B1 chain 2 with N67K, S69N, R138Y, R158E, R223E, E230N
B13: FIXa-Y155F/K247N/N249S/N260S (protein)
chain 1: B1 chain 1
chain 2: B1 chain 2
B14: FIXa R318Y/R338E/E410S (protein)
chain 1: B1 chain 1
chain 2: B1 chain 2 with N67K, S69N, S80N, R138Y, R158E, E230S
B15: FIXa Y155F/K228N/K247N/N249S (protein)
chain 1: B1 chain 1
chain 2: B1 chain 2 with K48N, S80N
B16: FIXa Y155F/N260S/R318Y/R338E/R403E/E410N (protein)
chain 1: B1 chain 1
chain 2: B1 chain 2 with N67K, S69N, R138Y, R158E, R223E, E230N
B17: FIXa R318Y/R338E/R403E/E410N/T412A (protein)
chain 1: B1 chain 1
chain 2: B1 chain 2 with N67K, S69N, S80N, R138Y, R158E, R223E, E230N, T232A
B18: FIXa-D104N/K106S/K247N/N249S/N260S (protein)
chain 1: B1 chain 1 with D104N, K106S
chain 2: B1 chain 2
B19: FIXa K247N/N249S/R318Y/R338E/E410N (protein)
chain 1: B1 chain 1
chain 2: B1 chain 2 with S80N, R138Y, R158E, E230N
B20: FIXa N260S/R318Y/R338E/R403E/E410N (protein)
chain 1: B1 chain 1
chain 2: B1 chain 2 with N67K, S69N, R138Y, R158E, R223E, E230N
B21: FIXa D104N/K106S/K247N/N249S/R318Y/R338E/R403E/E410N (protein)
chain 1: B1 chain 1 with D104N, K106S
chain 2: B1 chain 2 with S80N, R138Y, R158E, R223E, E230N
B22: FIXa D104N/K106S/Y155F/K228N/K247N/N249S (protein)
chain 1: B1 chain 1 with D104N, K106S
chain 2: B1 chain 2 with K48N, S80N
B23: FIXa A103N/N105S/K247N/N249S/R318Y/R338E/R403E/E410N (protein)
chain 1: B1 chain 1 with A103N, N105S
chain 2: B1 chain 2 with S80N, R138Y, R158E, R223E, E230N
B24: FIXa I251S/R318Y/R338E/R403E/E410N (protein)
chain 1: B1 chain 1
chain 2: B1 chain 2 with N67K, S69N, I71S, S80N, R138Y, R158E, R223E, E230N
B25: FIXa R318Y/R338E/T412A (protein)
chain 1: B1 chain 1
chain 2: B1 chain 2 with N67K, S69N, S80N, R138Y, R158E, T232A
B26: FIXa R318Y/R338E/E410N/T412V (protein)
chain 1: B1 chain 1
chain 2: B1 chain 2 with N67K, S69N, S80N, R138Y, R158E, E230N, T232V
B27: FIXa Y155F/K247N/N249S/R318Y/R338E/R403E/E410N (protein)
chain 1: B1 chain 1
chain 2: B1 chain 2 with S80N, R138Y, R158E, R223E, E230N
B28: FIXa I251S/R318Y/R338E/E410N (protein)
chain 1: B1 chain 1
chain 2: B1 chain 2 with N67K, S69N, I71S, S80N, R138Y, R158E, E230N
B29: FIXa R318Y/R338E/R403E/E410S (protein)
chain 1: B1 chain 1
chain 2: B1 chain 2 with N67K, S69N, S80N, R138Y, R158E, R223E, E230S
B30: FIXa K228N/K247N/N249S/R318Y/R338E/R403E/E410N (protein)
chain 1: B1 chain 1
chain 2: B1 chain 2 with K48N, S80N, R138Y, R158E, R223E, E230N

Columns and labels:
[1] = biological target: Antithrombin III (plasma purified human AT-III, Molecular Innovations), as AT-III/UFH complex
[2] = biological target: plasma purified human antithrombin III (AT-III) in complex with full-length unfractionated heparin (UFH)

Chain of Factor X (FX), P00742 (P00742 whole entry, looked up): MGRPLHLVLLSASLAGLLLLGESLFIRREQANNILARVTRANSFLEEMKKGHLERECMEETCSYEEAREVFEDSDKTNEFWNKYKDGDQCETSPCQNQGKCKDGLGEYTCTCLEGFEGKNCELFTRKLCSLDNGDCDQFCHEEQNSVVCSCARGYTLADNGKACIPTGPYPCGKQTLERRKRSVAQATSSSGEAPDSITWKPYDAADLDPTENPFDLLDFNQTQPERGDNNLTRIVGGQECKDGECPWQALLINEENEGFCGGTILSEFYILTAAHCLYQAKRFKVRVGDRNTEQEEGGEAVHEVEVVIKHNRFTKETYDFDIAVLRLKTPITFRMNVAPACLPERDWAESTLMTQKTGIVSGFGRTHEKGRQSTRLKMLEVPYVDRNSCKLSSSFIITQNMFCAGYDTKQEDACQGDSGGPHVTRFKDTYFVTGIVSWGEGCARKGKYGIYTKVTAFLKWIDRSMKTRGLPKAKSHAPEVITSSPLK

Protein | K0.5-mut/K0.5-wt [2] [fold] | further results
B1 | – | K0.5-mut/K0.5-wt (against Catalyst Biosciences WT FIXa) [1]: 8.1; KM (nM); Catalytic activity of FIXa variants (KM) (Factor X (FX), P00742): 114 nM; kcat of FX activation by FIXa in the Xase complex (FVIIIa, PC/PS vesicles, Ca2+) (Factor X (FX), P00742): 3.3 s⁻¹
B2 | 418 | –
B3 | 4.4 | –
B4 | > 517 | KM (Factor X (FX), P00742): 0.0443 µM
B5 | > 517 | –
B6 | 200 | –
B7 | > 517 | –
B8 | > 517 | –
B9 | 2.1 | –
B10 | 464 | –
B11 | > 517 | –
B12 | > 517 | –
B13 | – | K0.5-mut/K0.5-wt (against Catalyst Biosciences WT FIXa) [1]: 7.9; KM (nM); Catalytic activity of FIXa variants (KM) (Factor X (FX), P00742): 96.5 nM; kcat of FX activation by FIXa in the Xase complex (FVIIIa, PC/PS vesicles, Ca2+) (Factor X (FX), P00742): 1.8 s⁻¹
B14 | 279 | –
B15 | 1.4 | –
B16 | 501 | –
B17 | > 517 | KM (Factor X (FX), P00742): 0.0335 µM
B18 | – | K0.5-mut/K0.5-wt (against Catalyst Biosciences WT FIXa) [1]: 65.3; KM (nM); Catalytic activity of FIXa variants (KM) (Factor X (FX), P00742): 61.2 nM; kcat of FX activation by FIXa in the Xase complex (FVIIIa, PC/PS vesicles, Ca2+) (Factor X (FX), P00742): 0.6 s⁻¹
B19 | 78.3 | –
B20 | > 517 | –
B21 | > 517 | –
B22 | 1.6 | –
B23 | 129 | –
B24 | > 517 | –
B25 | 396 | –
B26 | 252 | –
B27 | > 517 | –
B28 | 303 | –
B29 | > 517 | –
B30 | > 517 | KM (Factor X (FX), P00742): 0.0558 µM
